Measured values as given in the supplement of paper PMC7877785.
± gives the uncertainty stated by the source.

Test: self-splicing fitness, log relative to wild type (ln ratio); higher = more splicing; Tetrahymena group I intron in knt gene, E. coli kanamycin selection, DiMSum; sequences stand for … in CUCUCU…GGAGGGAAAAGUUAUCAGGCAUGCACCUGGUAGCUAGUCUUUAAACCAAUAGAUUGCAUCGGUUUAAAAGGCAAGACCGUCAAAUUGCGGGAAAGGGGUCAACAGCCGUUCAGUACCAAGUCUCAGGGGAAACUUUGAGAUGGCCUUGCAAAGGGUAUGGUAAUAAGCUGACGGACAUGGUCCUAACCACGCAGCCAAGUCCUAAGUCAACAGAUCUUCUGUUGAUAUGGAUGCAGUUCACAGACUAAAUGUCGGUCGGGGAAGAUGUAUUCUUCUCAUAAGAUAUAGUCGGACCUCUCCUUAAUGGGAGCUAGCGGAUGAAGUGAUGCAACACUGGAGCCGCUGGGAACUAAUUUGUAUGCGAAAGUAUAUUGAUUAGUUUUGGAGUACUCGUGGUCG
How it was run: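 DiMSum derived fitness as the error-weighted combination of fold changes across replicates, kanamycin versus no kanamycin, normalised to wild type. E. coli BL21(DE3) held the library, which randomised all eight P1ex-region intron nucleotides within the knt kanamycin-resistance gene on pET-22b(+). Six replicate transformations grew overnight at 37°C or 30°C on LB agar with or without 25 μg/mL kanamycin, also containing 100 μg/mL carbenicillin, 50 μM IPTG and 0.2% rhamnose, and pooled colonies were amplicon-sequenced on an Illumina HiSeq 2500.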

## AGAAAGCAAUAUUACGUCAC
30 °C
  self-splicing fitness (ln): -3.52 ± 0.3
37 °C
  self-splicing fitness (ln): -2.61 ± 0.38

## AGAAAGCAAUAUUACGUGAC
30 °C
  self-splicing fitness (ln): -2.53 ± 0.32
37 °C
  self-splicing fitness (ln): -1.65 ± 0.24

## AGAAAGCAAUAUUACGUGGG
30 °C
  self-splicing fitness (ln): -3.69 ± 0.17
37 °C
  self-splicing fitness (ln): -1.3 ± 0.12

## AGAAAGCAAUAUUACGUGUU
30 °C
  self-splicing fitness (ln): -3.31 ± 0.15
37 °C
  self-splicing fitness (ln): -1.99 ± 0.12

## AGACAGCAAUAUUACGAACC
30 °C
  self-splicing fitness (ln): -0.535 ± 0.12
37 °C
  self-splicing fitness (ln): -0.29 ± 0.19

## AGACAGCAAUAUUACGAAGA
30 °C
  self-splicing fitness (ln): -3.75 ± 0.33
37 °C
  self-splicing fitness (ln): -2.41 ± 0.34

## AGACAGCAAUAUUACGACGC
30 °C
  self-splicing fitness (ln): -0.912 ± 0.086
37 °C
  self-splicing fitness (ln): -0.726 ± 0.11

## AGACAGCAAUAUUACGAGCC
30 °C
  self-splicing fitness (ln): -0.273 ± 0.14
37 °C
  self-splicing fitness (ln): -0.798 ± 0.21

## AGACAGCAAUAUUACGAGGA
30 °C
  self-splicing fitness (ln): -3.17 ± 0.22
37 °C
  self-splicing fitness (ln): -0.745 ± 0.17

## AGACAGCAAUAUUACGAUCC
30 °C
  self-splicing fitness (ln): -0.233 ± 0.083
37 °C
  self-splicing fitness (ln): -0.102 ± 0.11

## AGACAGCAAUAUUACGAUGC
30 °C
  self-splicing fitness (ln): -3.36 ± 0.23
37 °C
  self-splicing fitness (ln): -2.33 ± 0.19

## AGACAGCAAUAUUACGCAGG
30 °C
  self-splicing fitness (ln): -3.5 ± 0.2
37 °C
  self-splicing fitness (ln): -1.25 ± 0.16

## AGACAGCAAUAUUACGCCCG
30 °C
  self-splicing fitness (ln): -0.434 ± 0.17
37 °C
  self-splicing fitness (ln): -0.555 ± 0.24

## AGACAGCAAUAUUACGCGUU
30 °C
  self-splicing fitness (ln): -3.47 ± 0.16
37 °C
  self-splicing fitness (ln): -2.11 ± 0.14

## AGACAGCAAUAUUACGCUAG
30 °C
  self-splicing fitness (ln): -4.3 ± 0.3
37 °C
  self-splicing fitness (ln): -2.81 ± 0.22

## AGACAGCAAUAUUACGGCCA
30 °C
  self-splicing fitness (ln): -1.28 ± 0.11
37 °C
  self-splicing fitness (ln): -0.142 ± 0.11

## AGACAGCAAUAUUACGGGUG
30 °C
  self-splicing fitness (ln): -3.07 ± 0.09
37 °C
  self-splicing fitness (ln): -2.37 ± 0.1

## AGACAGCAAUAUUACGUAAG
30 °C
  self-splicing fitness (ln): -1.33 ± 0.075
37 °C
  self-splicing fitness (ln): -0.396 ± 0.088

## AGACAGCAAUAUUACGUGUC
30 °C
  self-splicing fitness (ln): -3.93 ± 0.21
37 °C
  self-splicing fitness (ln): -3.7 ± 0.2

## AGACAGCAAUAUUACGUGUU
30 °C
  self-splicing fitness (ln): -3.8 ± 0.16
37 °C
  self-splicing fitness (ln): -2.29 ± 0.14

## AGACAGCAAUAUUACGUUGC
30 °C
  self-splicing fitness (ln): -3.73 ± 0.24
37 °C
  self-splicing fitness (ln): -3.26 ± 0.37

## AGAGAGCAAUAUUACGAGCA
30 °C
  self-splicing fitness (ln): -2.68 ± 0.46
37 °C
  self-splicing fitness (ln): -1.31 ± 0.27

## AGAGAGCAAUAUUACGAUCU
30 °C
  self-splicing fitness (ln): -4.39 ± 0.42
37 °C
  self-splicing fitness (ln): -2.22 ± 0.2

## AGAGAGCAAUAUUACGCACU
30 °C
  self-splicing fitness (ln): -3.16 ± 0.34
37 °C
  self-splicing fitness (ln): -2.41 ± 0.32

## AGAGAGCAAUAUUACGCAUC
30 °C
  self-splicing fitness (ln): -2.22 ± 0.28
37 °C
  self-splicing fitness (ln): -1.91 ± 0.22

## AGAGAGCAAUAUUACGCCUA
30 °C
  self-splicing fitness (ln): -2.6 ± 0.48
37 °C
  self-splicing fitness (ln): -1.08 ± 0.33

## AGAGAGCAAUAUUACGCCUU
30 °C
  self-splicing fitness (ln): -3.56 ± 0.29
37 °C
  self-splicing fitness (ln): -2.16 ± 0.21

## AGAGAGCAAUAUUACGCGCC
30 °C
  self-splicing fitness (ln): -2.58 ± 0.46

## AGAGAGCAAUAUUACGCGGC
30 °C
  self-splicing fitness (ln): -2.71 ± 0.26

## AGAGAGCAAUAUUACGCUAC
37 °C
  self-splicing fitness (ln): -2.33 ± 0.45

## AGAGAGCAAUAUUACGCUUG
30 °C
  self-splicing fitness (ln): -2.97 ± 0.3
37 °C
  self-splicing fitness (ln): -2.46 ± 0.35

## AGAGAGCAAUAUUACGCUUU
30 °C
  self-splicing fitness (ln): -3.54 ± 0.41
37 °C
  self-splicing fitness (ln): -2.52 ± 0.45

## AGAGAGCAAUAUUACGGAAU
30 °C
  self-splicing fitness (ln): -3.36 ± 0.32
37 °C
  self-splicing fitness (ln): -1.79 ± 0.44

## AGAGAGCAAUAUUACGGAGA
37 °C
  self-splicing fitness (ln): -2.11 ± 0.37

## AGAGAGCAAUAUUACGGAUC
30 °C
  self-splicing fitness (ln): -3.76 ± 0.42

## AGAGAGCAAUAUUACGGCGA
30 °C
  self-splicing fitness (ln): -2.95 ± 0.39
37 °C
  self-splicing fitness (ln): -1.82 ± 0.39

## AGAGAGCAAUAUUACGGCUC
30 °C
  self-splicing fitness (ln): -3.01 ± 0.27
37 °C
  self-splicing fitness (ln): -1.37 ± 0.25

## AGAGAGCAAUAUUACGGGAC
37 °C
  self-splicing fitness (ln): -2.61 ± 0.44

## AGAGAGCAAUAUUACGGGUU
30 °C
  self-splicing fitness (ln): -4.74 ± 0.46
37 °C
  self-splicing fitness (ln): -2.08 ± 0.23

## AGAGAGCAAUAUUACGGUGC
30 °C
  self-splicing fitness (ln): -4.34 ± 0.42
37 °C
  self-splicing fitness (ln): -2.07 ± 0.29

## AGAGAGCAAUAUUACGUAAG
30 °C
  self-splicing fitness (ln): -3.25 ± 0.26
37 °C
  self-splicing fitness (ln): -2.7 ± 0.36

## AGAGAGCAAUAUUACGUAAU
30 °C
  self-splicing fitness (ln): -4.18 ± 0.33
37 °C
  self-splicing fitness (ln): -2.81 ± 0.34

## AGAGAGCAAUAUUACGUAUC
37 °C
  self-splicing fitness (ln): -2.03 ± 0.17

## AGAGAGCAAUAUUACGUCGA
30 °C
  self-splicing fitness (ln): -2 ± 0.32

## AGAGAGCAAUAUUACGUGCU
37 °C
  self-splicing fitness (ln): -1.44 ± 0.28

## AGAUAGCAAUAUUACGACCG
30 °C
  self-splicing fitness (ln): -1.01 ± 0.17
37 °C
  self-splicing fitness (ln): 0.121 ± 0.32

## AGAUAGCAAUAUUACGAGGC
30 °C
  self-splicing fitness (ln): -0.902 ± 0.39
37 °C
  self-splicing fitness (ln): -0.819 ± 0.21

## AGAUAGCAAUAUUACGAUAC
30 °C
  self-splicing fitness (ln): -3.11 ± 0.26
37 °C
  self-splicing fitness (ln): -0.943 ± 0.19

## AGAUAGCAAUAUUACGAUCG
30 °C
  self-splicing fitness (ln): 0.112 ± 0.058
37 °C
  self-splicing fitness (ln): 0.0462 ± 0.1

## AGAUAGCAAUAUUACGAUUG
30 °C
  self-splicing fitness (ln): -1.65 ± 0.11
37 °C
  self-splicing fitness (ln): -1.81 ± 0.18

## AGAUAGCAAUAUUACGCAAG
30 °C
  self-splicing fitness (ln): -2.2 ± 0.15
37 °C
  self-splicing fitness (ln): -0.0746 ± 0.16
